Reference: article doi:10.1101/2025.10.03.680336 (bioRxiv, 2025)

Assays:
[1] = molecular target: T1, full length SPD-5-GFP (C. elegans), P91349; assay: mass photometry; conditions: remark: other sources report otherwise
T1 chain: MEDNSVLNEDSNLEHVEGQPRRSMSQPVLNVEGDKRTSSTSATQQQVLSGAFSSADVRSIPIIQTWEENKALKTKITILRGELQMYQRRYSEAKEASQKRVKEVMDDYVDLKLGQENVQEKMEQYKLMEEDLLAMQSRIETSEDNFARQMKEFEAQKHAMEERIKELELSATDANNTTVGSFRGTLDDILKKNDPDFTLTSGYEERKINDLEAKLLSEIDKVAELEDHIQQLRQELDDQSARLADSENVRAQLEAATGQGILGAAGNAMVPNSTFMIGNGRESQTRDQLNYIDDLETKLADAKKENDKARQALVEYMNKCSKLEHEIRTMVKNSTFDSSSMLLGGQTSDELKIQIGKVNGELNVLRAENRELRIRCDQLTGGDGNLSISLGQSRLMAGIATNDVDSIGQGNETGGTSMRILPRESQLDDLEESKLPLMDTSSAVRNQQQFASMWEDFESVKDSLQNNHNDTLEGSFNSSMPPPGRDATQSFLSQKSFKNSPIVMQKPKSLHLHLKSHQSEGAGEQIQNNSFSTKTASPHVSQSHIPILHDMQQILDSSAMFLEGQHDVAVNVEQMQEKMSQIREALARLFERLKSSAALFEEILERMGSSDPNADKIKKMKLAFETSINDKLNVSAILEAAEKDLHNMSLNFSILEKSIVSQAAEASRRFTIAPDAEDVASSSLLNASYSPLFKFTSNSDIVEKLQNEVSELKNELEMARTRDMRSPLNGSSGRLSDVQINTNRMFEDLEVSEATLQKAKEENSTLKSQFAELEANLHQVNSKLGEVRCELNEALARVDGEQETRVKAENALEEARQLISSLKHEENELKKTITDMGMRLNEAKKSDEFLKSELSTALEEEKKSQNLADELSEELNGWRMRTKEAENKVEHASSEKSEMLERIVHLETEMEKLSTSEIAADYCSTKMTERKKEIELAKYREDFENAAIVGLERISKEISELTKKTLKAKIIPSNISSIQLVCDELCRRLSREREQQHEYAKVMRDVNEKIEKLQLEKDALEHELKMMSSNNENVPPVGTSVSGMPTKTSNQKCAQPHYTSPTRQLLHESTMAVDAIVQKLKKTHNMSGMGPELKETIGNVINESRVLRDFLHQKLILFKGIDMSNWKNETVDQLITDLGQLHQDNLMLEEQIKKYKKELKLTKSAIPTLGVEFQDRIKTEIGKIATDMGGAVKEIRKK

[2] = molecular target: the molecule itself; assay: crystal structure
[3] = molecular target: T2, NG-CDK5RAP2-PReM (CDK5RAP2 residues 535-639) (human, UniProt Q96SN8 535-639); assay: fluorescence microscopy of networks formed on mixing purified proteins
T2 sequence (looked up): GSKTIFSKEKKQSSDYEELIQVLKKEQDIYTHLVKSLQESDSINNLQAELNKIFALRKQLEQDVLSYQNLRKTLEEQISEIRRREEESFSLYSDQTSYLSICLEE

[4] = molecular target: T3, NG-fusion of PReMΔH1 (Cnn 462-608) (Drosophila melanogaster, UniProt P54623-2 462-608); assay: as above
T3 sequence (looked up): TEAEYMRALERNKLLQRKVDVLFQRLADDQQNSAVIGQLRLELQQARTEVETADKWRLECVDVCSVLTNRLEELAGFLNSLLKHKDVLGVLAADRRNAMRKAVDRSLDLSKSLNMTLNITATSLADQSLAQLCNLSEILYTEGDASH

[5] = molecular target: the molecule itself; assay: mass photometry
[6] = molecular target: the molecule itself; assay: SEC-MALS

B1: full length SPD-5-GFP, P91349 1-1198 (natural protein)
chain: MEDNSVLNEDSNLEHVEGQPRRSMSQPVLNVEGDKRTSSTSATQQQVLSGAFSSADVRSIPIIQTWEENKALKTKITILRGELQMYQRRYSEAKEASQKRVKEVMDDYVDLKLGQENVQEKMEQYKLMEEDLLAMQSRIETSEDNFARQMKEFEAQKHAMEERIKELELSATDANNTTVGSFRGTLDDILKKNDPDFTLTSGYEERKINDLEAKLLSEIDKVAELEDHIQQLRQELDDQSARLADSENVRAQLEAATGQGILGAAGNAMVPNSTFMIGNGRESQTRDQLNYIDDLETKLADAKKENDKARQALVEYMNKCSKLEHEIRTMVKNSTFDSSSMLLGGQTSDELKIQIGKVNGELNVLRAENRELRIRCDQLTGGDGNLSISLGQSRLMAGIATNDVDSIGQGNETGGTSMRILPRESQLDDLEESKLPLMDTSSAVRNQQQFASMWEDFESVKDSLQNNHNDTLEGSFNSSMPPPGRDATQSFLSQKSFKNSPIVMQKPKSLHLHLKSHQSEGAGEQIQNNSFSTKTASPHVSQSHIPILHDMQQILDSSAMFLEGQHDVAVNVEQMQEKMSQIREALARLFERLKSSAALFEEILERMGSSDPNADKIKKMKLAFETSINDKLNVSAILEAAEKDLHNMSLNFSILEKSIVSQAAEASRRFTIAPDAEDVASSSLLNASYSPLFKFTSNSDIVEKLQNEVSELKNELEMARTRDMRSPLNGSSGRLSDVQINTNRMFEDLEVSEATLQKAKEENSTLKSQFAELEANLHQVNSKLGEVRCELNEALARVDGEQETRVKAENALEEARQLISSLKHEENELKKTITDMGMRLNEAKKSDEFLKSELSTALEEEKKSQNLADELSEELNGWRMRTKEAENKVEHASSEKSEMLERIVHLETEMEKLSTSEIAADYCSTKMTERKKEIELAKYREDFENAAIVGLERISKEISELTKKTLKAKIIPSNISSIQLVCDELCRRLSREREQQHEYAKVMRDVNEKIEKLQLEKDALEHELKMMSSNNENVPPVGTSVSGMPTKTSNQKCAQPHYTSPTRQLLHESTMAVDAIVQKLKKTHNMSGMGPELKETIGNVINESRVLRDFLHQKLILFKGIDMSNWKNETVDQLITDLGQLHQDNLMLEEQIKKYKKELKLTKSAIPTLGVEFQDRIKTEIGKIATDMGGAVKEIRKK
stoichiometry N [1]: 2

B2: Cnn 490-579 2A mutant (domain or fragment, Drosophila melanogaster, UniProt P54623-2 490-579, looked up)
chain: DQQNSAVIGQLRLELQQARTEVETADKWRLECVDVCSVLTNRLEELAGFLNSLLKHKDVLGVLAADRRNAMRKAVDRALDLAKSLNMTLN
binding result [2]: binds

B3: human CDK5RAP2 CM2 (residues 1812-1893) (domain or fragment, UniProt Q96SN8 1812-1893, looked up)
chain: PLHCEQIGEMKAEVTKLHKKLFEQEKKLQNTMKLLQLSKRQEKVIFDQLVVTHKILRKARGNLELRPGGAHPGTCSPSRPGS
binding result [3]: binds | binding result [4]: binds

B4: full length Cnn-GFP (natural protein, Drosophila melanogaster, UniProt P54623-2 1-1148, looked up)
chain: MDQSKQVLRDYCGDGNGTCASSLKEITLIETVTSFLEENGAAEIDRRVLRKLAEALSKSIDDTSPGALQDVTMENSYASFDVPRPPGGGNSPLPSQGRSVRELEEQMSALRKENFNLKLRIYFLEEGQPGARADSSTESLSKQLIDAKIEIATLRKTVDVKMELLKDAARAISHHEELQRKADIDSQAIIDELQEQIHAYQMAESGGQPVENIAKTRKMLRLESEVQRLEEELVNIEARNVAARNELEFMLAERLESLTACEGKIQELAIKNSELVERLEKETASAESSNANRDLGAQLADKICELQEAQEKLKERERIHEQACRTIQKLMQKLSSQEKEIKKLNQENEQSANKENDCAKTVISPSSSGRSMSDNEASSQEMSTNLRVRYELKINEQEEKIKQLQTEVKKKTANLQNLVNKELWEKNREVERLTKLLANQQKTLPQISEESAGEADLQQSFTEAEYMRALERNKLLQRKVDVLFQRLADDQQNSAVIGQLRLELQQARTEVETADKWRLECVDVCSVLTNRLEELAGFLNSLLKHKDVLGVLAADRRNAMRKAVDRSLDLSKSLNMTLNITATSLADQSLAQLCNLSEILYTEGDASHKTFNSHEELHAATSMAPTVENLKAENKALKKELEKRRSSEGQRKERRSLPLPSQQFDNQSESEAWSEPDRKVSLARIGLDETSNSLAAPEQAISESESEGRTCATRQDRNRNSERIAQLEEQIAQKDERMLNVQCQMVELDNRYKQEQLRCLDITQQLEQLRAINEALTADLHAIGSHEEERMVELQRQLELKNQQIDQLKLAHSTLTADSQITEMELQALQQQMQEIEQLHADSVETLQSQLQKLKLDAVQQLEEHERLHREALERDWVALTTYQEQAQQLLELQRSLDYHQENEKELKQTLVENELATRALKKQLDESTLQASKAVMERTKAYNDKLQLEKRSEELRLQLEALKEEHQKLLQKRSNSSDVSQSGYTSEEVAVPMGPPSGQATTCKQAAAAVLGQRVNTSSPDLGIESDAGRISSVEVSNAQRAMLKTVEMKTEGSASPKAKSEESTSPDSKSNVATGAATVHDCAKVDLENAELRRKLIRTKRAFEDTYEKLRMANKAKAQVEKDIKNQILKTHNVLRNVRSNMENEL
stoichiometry N [5]: 2

B5: MBP-fusion of PReM domain construct Cnn 462-608 (domain or fragment, Drosophila melanogaster, UniProt P54623-2 462-608, looked up)
chain: TEAEYMRALERNKLLQRKVDVLFQRLADDQQNSAVIGQLRLELQQARTEVETADKWRLECVDVCSVLTNRLEELAGFLNSLLKHKDVLGVLAADRRNAMRKAVDRSLDLSKSLNMTLNITATSLADQSLAQLCNLSEILYTEGDASH
stoichiometry N [6]: 2

B6: MBP-fusion of PReM domain construct Cnn 490-608 (domain or fragment, Drosophila melanogaster, UniProt P54623-2 490-608, looked up)
chain: DQQNSAVIGQLRLELQQARTEVETADKWRLECVDVCSVLTNRLEELAGFLNSLLKHKDVLGVLAADRRNAMRKAVDRSLDLSKSLNMTLNITATSLADQSLAQLCNLSEILYTEGDASH
stoichiometry N [6]: 2
